Test results published in paper PMC10318062 (Nature Communications, 2023).

B1: LY-CoV555 (sdFab) (Fab, V domains shown)
VH: QVQLVQSGAEVKKPGSSVKVSCKASGGTFSNYAISWVRQAPGQGLEWMGRIIPILGIANYAQKFQGRVTITADKSTSTAYMELSSLRSEDTAVYYCARGYYEARHYYYYYAMDVWGQGTAVTVSS
VL: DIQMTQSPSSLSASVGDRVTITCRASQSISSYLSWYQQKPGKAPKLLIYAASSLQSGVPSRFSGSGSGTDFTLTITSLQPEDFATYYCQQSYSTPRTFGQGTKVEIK
B2: LY-CoV1404 (sdFab) (Fab, V domains shown)
VH: QITLKESGPTLVKPTQTLTLTCTFSGFSLSISGVGVGWLRQPPGKALEWLALIYWDDDKRYSPSLKSRLTISKDTSKNQVVLKMTNIDPVDTATYYCAHHSISTIFDHWGQGTLVTVSS
VL: QSALTQPASVSGSPGQSITISCTATSSDVGDYNYVSWYQQHPGKAPKLMIFEVSDRPSGISNRFSGSKSGNTASLTISGLQAEDEADYYCSSYTTSSAVFGGGTKLTVL
B3: AZD8895 (sdFab) (Fab, V domains shown)
VH: EVQLVQSGPEVKKPGTSVKVSCKASGFTFMSSAVQWVRQARGQRLEWIGWIVIGSGNTNYAQKFQERVTITRDMSTSTAYMELSSLRSEDTAVYYCAAPYCSSISCNDGFDIWGQGTMVTVSS
VL: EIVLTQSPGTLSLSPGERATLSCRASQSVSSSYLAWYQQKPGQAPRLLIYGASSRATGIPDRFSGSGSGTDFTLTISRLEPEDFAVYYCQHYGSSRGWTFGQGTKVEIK
B4: REGN10987 (sdFab) (Fab, V domains shown)
VH: QVQLVESGGGVVQPGRSLRLSCAASGFTFSNYAMYWVRQAPGKGLEWVAVISYDGSNKYYADSVKGRFTISRDNSKNTLYLQMNSLRTEDTAVYYCASGSDYGDYLLVYWGQGTLVTVSS
VL: QSALTQPASVSGSPGQSITISCTGTSSDVGGYNYVSWYQQHPGKAPKLMIYDVSKRPSGVSNRFSGSKSGNTASLTISGLQSEDEADYYCNSLTSISTWVFGGGTKLTVL
B5: REGN10933 (sdFab) (Fab, V domains shown)
VH: QVQLVESGGGLVKPGGSLRLSCAASGFTFSDYYMSWIRQAPGKGLEWVSYITYSGSTIYYADSVKGRFTISRDNAKSSLYLQMNSLRAEDTAVYYCARDRGTTMVPFDYWGQGTLVTVSS
VL: DIQMTQSPSSLSASVGDRVTITCQASQDITNYLNWYQQKPGKAPKLLIYAASNLETGVPSRFSGSGSGTDFTFTISGLQPEDIATYYCQQYDNLPLTFGGGTKVEIK
B6: CB6 (sdFab) (Fab, V domains shown)
VH: EVQLVESGGGLVQPGGSLRLSCAASGFTVSSNYMSWVRQAPGKGLEWVSVIYSGGSTFYADSVKGRFTISRDNSMNTLFLQMNSLRAEDTAVYYCARVLPMYGDYLDYWGQGTLVTVSS
VL: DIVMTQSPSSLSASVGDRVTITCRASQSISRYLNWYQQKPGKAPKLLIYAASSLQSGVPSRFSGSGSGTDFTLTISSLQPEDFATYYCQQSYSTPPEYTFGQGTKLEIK

What follows are binders tested against SARS-CoV-2 hexaproline stabilized pre-fusion spike glycoprotein (S6P) (SARS-CoV-2, ancestral (Wuhan-Hu-1 …, UniProt P0DTC2, stabilised)) (assay: AlphaScreen or HTRF). Details: one partner purified.

Question: Does B1 bind?
Answer: binds

Question: Does B2 bind?
Answer: binds

Question: Does B3 bind?
Answer: binds

Question: Does B4 bind?
Answer: binds

Question: Does B5 bind?
Answer: binds

Question: Does B6 bind?
Answer: binds
